{
  "source": "paper PMC3964825",
  "experiment_in_all_cases": "EMSA",
  "key": {"EZH2-EED": {"target": "EZH2-EED (UniProt Q15910;O75530 1-746;1-441)", "sequence (Q15910 whole entry, chain 1 of 2)": "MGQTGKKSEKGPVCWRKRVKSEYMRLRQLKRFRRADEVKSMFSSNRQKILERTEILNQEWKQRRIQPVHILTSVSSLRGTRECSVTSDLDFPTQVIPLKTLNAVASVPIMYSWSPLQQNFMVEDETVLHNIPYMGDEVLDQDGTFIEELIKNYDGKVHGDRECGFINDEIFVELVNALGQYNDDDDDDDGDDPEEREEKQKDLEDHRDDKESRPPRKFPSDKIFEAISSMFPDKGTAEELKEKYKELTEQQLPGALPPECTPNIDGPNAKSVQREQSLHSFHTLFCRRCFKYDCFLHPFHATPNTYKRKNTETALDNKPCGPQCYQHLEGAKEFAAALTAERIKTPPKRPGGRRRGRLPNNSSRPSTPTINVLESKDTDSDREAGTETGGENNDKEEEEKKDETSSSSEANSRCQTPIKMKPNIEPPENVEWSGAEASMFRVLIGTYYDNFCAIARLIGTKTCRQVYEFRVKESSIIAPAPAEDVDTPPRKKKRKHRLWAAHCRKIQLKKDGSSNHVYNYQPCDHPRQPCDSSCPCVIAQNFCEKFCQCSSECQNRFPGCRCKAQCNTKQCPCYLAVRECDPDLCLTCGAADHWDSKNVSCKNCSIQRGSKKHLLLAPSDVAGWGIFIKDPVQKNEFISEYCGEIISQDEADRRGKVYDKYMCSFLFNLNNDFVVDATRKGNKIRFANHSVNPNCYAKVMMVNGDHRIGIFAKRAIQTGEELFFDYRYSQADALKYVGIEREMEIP", "sequence (O75530 whole entry, chain 2 of 2)": "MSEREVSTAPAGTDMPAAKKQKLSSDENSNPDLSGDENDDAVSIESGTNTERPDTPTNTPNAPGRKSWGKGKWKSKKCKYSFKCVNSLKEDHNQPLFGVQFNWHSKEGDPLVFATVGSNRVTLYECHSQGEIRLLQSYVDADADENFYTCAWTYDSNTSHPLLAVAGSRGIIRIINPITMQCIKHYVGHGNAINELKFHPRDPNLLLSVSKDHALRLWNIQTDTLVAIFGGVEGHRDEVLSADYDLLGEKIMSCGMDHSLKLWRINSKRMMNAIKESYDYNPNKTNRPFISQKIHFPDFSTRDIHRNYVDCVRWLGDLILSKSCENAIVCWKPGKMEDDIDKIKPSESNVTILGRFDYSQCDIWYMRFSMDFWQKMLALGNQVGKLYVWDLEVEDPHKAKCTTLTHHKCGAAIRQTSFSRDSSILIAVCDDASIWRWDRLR"}, "PRC2 3m (EZH2-EED-SUZ12)": {"target": "PRC2 3m (EZH2-EED-SUZ12) (UniProt Q15910;O75530;Q15022 1-746;1-441;1-739)", "sequence (Q15910 whole entry, chain 1 of 3)": "as the sequence (Q15910 whole entry, chain 1 of 2) above", "sequence (O75530 whole entry, chain 2 of 3)": "as the sequence (O75530 whole entry, chain 2 of 2) above", "sequence (Q15022 whole entry, chain 3 of 3)": "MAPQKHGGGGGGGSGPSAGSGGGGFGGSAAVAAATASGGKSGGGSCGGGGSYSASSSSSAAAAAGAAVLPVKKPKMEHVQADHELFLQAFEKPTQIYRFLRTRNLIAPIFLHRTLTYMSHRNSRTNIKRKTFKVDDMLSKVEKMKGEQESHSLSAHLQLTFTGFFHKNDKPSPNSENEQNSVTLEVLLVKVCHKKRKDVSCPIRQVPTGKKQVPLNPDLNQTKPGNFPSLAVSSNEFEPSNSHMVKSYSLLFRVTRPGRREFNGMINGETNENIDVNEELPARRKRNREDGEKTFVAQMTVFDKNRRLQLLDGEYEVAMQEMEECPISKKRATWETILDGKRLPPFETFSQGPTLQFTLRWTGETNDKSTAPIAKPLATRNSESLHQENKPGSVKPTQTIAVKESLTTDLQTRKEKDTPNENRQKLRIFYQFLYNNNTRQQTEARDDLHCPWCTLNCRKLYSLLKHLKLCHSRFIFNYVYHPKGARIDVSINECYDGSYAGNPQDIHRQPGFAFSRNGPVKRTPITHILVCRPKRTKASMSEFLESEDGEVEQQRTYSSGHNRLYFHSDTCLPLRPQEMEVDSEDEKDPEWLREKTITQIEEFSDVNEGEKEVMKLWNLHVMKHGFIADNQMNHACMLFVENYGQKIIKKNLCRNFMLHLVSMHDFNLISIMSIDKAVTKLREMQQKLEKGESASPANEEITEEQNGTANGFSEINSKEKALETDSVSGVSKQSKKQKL"}, "LSD1": {"target": "LSD1 (UniProt O60341 1-852)"}},
  "data": [
    {"binder": "HOTAIR 101-300 (structured_RNA) RNA: GACCAACACCCCUGCUCCUGGCGGCUCCCACCCGGGGCUUAGACCCUCAGGUCCCUAAUAUCCCGGAGGUGCUCUCAAUCAGAAAGGUCCUGCUCCGCUUCGCAGUGGAAUGGAACGGAUUUAGAAGCCUGCAGUAGGGGAGUGGGGAGUGGAGAGAGGGAGCCCAGAGUUACAGACGGCGGCGAGAGGAAGGAGGGGCGGAU", "values": [
      {"measurement": "Kd", "setting": "EZH2-EED", "result": "119 ± 18", "unit": "nM"}
    ]},
    {"binder": "HOTAIR 212-300 (minHOTAIR) (structured_RNA) RNA: GGAACGGAUUUAGAAGCCUGCAGUAGGGGAGUGGGGAGUGGAGAGAGGGAGCCCAGAGUUACAGACGGCGGCGAGAGGAAGGAGGGGCGGAU", "values": [
      {"measurement": "Kd", "setting": "PRC2 3m (EZH2-EED-SUZ12)", "result": "111 ± 10", "unit": "nM"},
      {"measurement": "Kd", "setting": "EZH2-EED", "result": "135 ± 20", "unit": "nM"},
      {"measurement": "binding result", "setting": "LSD1", "result": "no binding"}
    ]},
    {"binder": "HOTAIR 1-100 (structured_RNA) RNA: GACUCGCCUGUGCUCUGGAGCUUGAUCCGAAAGCUUCCACAGUGAGGACUGCUCCGUGGGGGUAAGAGAGCACCAGGCACUGAGGCCUGGGAGUUCCACA", "values": [
      {"measurement": "binding result", "setting": "EZH2-EED", "result": "no binding"}
    ]},
    {"binder": "HOTAIR 201-300 (structured_RNA) RNA: GCAGUGGAAUGGAACGGAUUUAGAAGCCUGCAGUAGGGGAGUGGGGAGUGGAGAGAGGGAGCCCAGAGUUACAGACGGCGGCGAGAGGAAGGAGGGGCGGAU", "values": [
      {"measurement": "Kd", "setting": "EZH2-EED", "result": "157 ± 12", "unit": "nM"}
    ]}
  ]
}
